The target of experiment [1] is T1, recombinant mouse artemin protein (Ala112-Gly224 fragment) (mouse, UniProt Q9Z0L2 112-224).
T1 construct: range 112-224; Bought as lyophilized powder from R&D Systems
T1 sequence (looked up): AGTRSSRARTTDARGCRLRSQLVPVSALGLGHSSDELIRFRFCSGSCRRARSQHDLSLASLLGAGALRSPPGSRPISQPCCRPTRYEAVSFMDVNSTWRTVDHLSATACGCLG
Briefly: SPR (Biacore T100), purified VHH and mouse artemin, 1:1 model. The method, then: (§1) In some cases, scFv/VHH were further purified by gel filtration using Superdex 75 column (GE Healthcare). Proteins were concentrated using Amicon Ultra-15 10 kDa centrifugal filter unit (Millipore) and stored in PBS at −70° C. Titration ELISA. Titration ELISA was used to measure binding of purified scFv to GLP-1R. GLP-1R immobilization in a 96 well plate and blocking was carried out as described for phage ELISA. A purified scFv was prepared at varying concentrations (from 1 nM to 3 μM) in 2% MPBS. 100 μl scFv aliquot of each concentration was added to a well and incubated at RT for 1.5 h. The plate was then washed with TPBS and PBS three times each. Primary anti His-tag Mouse mAb (Cell signaling Technology, Inc.) was diluted 1:250 in 2% MPBS and added into each well. […] The absorbance was read at 450 nm, using SpectraMax iD5 microplate reader (Molecular Devices, LLC). The dissociation constant Kd was calculated according to a published protocol. […] Binding of purified VHH nanobodies to Artemin and to untagged FAAH proteins was determined using Biacore T100 instrument (GE Healthcare). […] Kinetic constants for binding interaction were determined by fitting the sensorgrams with 1:1 binding model using Biacore T100 evaluation software, version 2.0 (GE healthcare).
(In general: In SPR one partner is held on a chip, and binding of the other changes the refractive index at the surface.)

In experiment [2] the target is T2, human Glucagon-like peptide-1 receptor (GLP-1R), purified His6-tagged protein (human, UniProt P43220 24-463, limits assumed).
T2 construct: Recombinant human His6-tagged GLP-1R purified from Sf9 biomass and immobilised on the plate for ELISA; also called purified GLP-1R protein
The experiment is described as follows: titration ELISA, apparent Kd compared with the parental scFv. (An ELISA detects its analyte on a solid surface through an enzyme-linked reagent.)

The target of experiment [3] is T2, human Glucagon-like peptide-1 receptor …. Briefly: titration ELISA, GLP-1R coated on the plate, purified scFv titrated; apparent Kd.
Experiment [4] addresses T3, human fatty acid amide hydrolase (FAAH), amino acids 30-579 (human, UniProt O00519 30-579).
T3 construct: range 30-579; Expressed in E. coli as an MBP fusion; The MBP tag was cleaved with Factor Xa, and SPR used the untagged FAAH; also called untagged FAAH; purified human FAAH protein
T3 sequence (looked up): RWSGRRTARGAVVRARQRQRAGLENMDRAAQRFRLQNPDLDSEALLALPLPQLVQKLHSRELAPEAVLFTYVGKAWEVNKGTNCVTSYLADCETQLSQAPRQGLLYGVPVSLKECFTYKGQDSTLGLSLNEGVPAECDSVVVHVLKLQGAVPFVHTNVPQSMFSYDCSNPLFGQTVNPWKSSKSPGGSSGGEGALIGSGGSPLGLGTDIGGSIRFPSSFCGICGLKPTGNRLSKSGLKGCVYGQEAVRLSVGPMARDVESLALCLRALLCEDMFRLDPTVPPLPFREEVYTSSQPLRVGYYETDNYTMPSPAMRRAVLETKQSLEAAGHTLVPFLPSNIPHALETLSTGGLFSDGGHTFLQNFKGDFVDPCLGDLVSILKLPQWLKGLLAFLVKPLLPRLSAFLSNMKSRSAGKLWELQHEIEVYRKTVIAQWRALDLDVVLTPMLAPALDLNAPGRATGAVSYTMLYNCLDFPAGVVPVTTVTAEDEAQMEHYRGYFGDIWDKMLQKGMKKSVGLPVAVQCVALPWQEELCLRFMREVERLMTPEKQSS
The experiment is described as follows: SPR (Biacore T100), purified VHH and untagged FAAH, 1:1 model. The method, then:
as §1

In experiment [5] the target is T3, human fatty acid amide hydrolase …. Briefly: SPR (Biacore T100), compared with parent A3 nanobody. Here is the method:
as §1

B1: LM52 VHH nanobody (VHH)
VHH: VQLVESGGGLVQAGASLRLSCAASGGTLVNSSMGWFRQAPGKERDFVATINWRGDTTWYGESVKGRFSISRDNTKNMVYLQMNSLKPEDTAVYYCAVYRTRYYTGRRMMSPDEYDVWGQGTQVTVHH
notes: From the mutagenized llama VHH library; likely a mutant variant of LU5
Consider B1, for which, in experiment [1], the Kd came out at 102 nM.

B2: GHM33 scFv (scFv)
scFv: VQLVQSGAEVKKPGSSVKVSCKASGGTFSSYAISWVRQAPGQGLEWMGGIIPIFGTANYAQKFQGRVTITADESTSTAYMELSSLRSEDTAVYYCARGRDDYYDSSAFDYWGQGTLVTVGGGGSGGGGSGGGGSGGGGSVLTQPPSVSVAPGQTARVTCGGNKIGSYSVYWYQHKPGQAPVLVVYDDSDRPSGIPERFSGSNSGNMATLTISGVEAGDEADYYCQVWDCTTDDVIFGGGTKLTVLHHHHHH
notes: Purified soluble His6-tagged scFv expressed from pADL-20c in the E. coli periplasm; The printed VH and VL start at the second residue and stop before the end of the J region; also called mutated scFv clone (GHM33); anti-GLP-1R scFv
B2: in experiment [2], the “fold lower Kd than the parental scFv” value is around 3 fold. Moreover, in experiment [3], the Kd was determined as 100 nM.

B3: OD1 VHH nanobody (VHH)
VHH: VQLVESGGGLVQAGGSLRLSCAASGRTFSDNTMAWHRQGPGKQRGLVAFITTGGRTVYTDSVKGRFIISRDNAKNTGFLQMNSLKPEDTAVYYCYVAGNWGQGTQVTVHH
notes: Purified soluble His6-tagged llama VHH; also called mutated VHH clone (OD1)
In experiment [4], B3 came in with a Kd of 0.65 nM. Further, the “fold increase in FAAH affinity compared to parent VHH A3” value in experiment [5] is around 2.4 fold.

Values taken from patent US20230295271A1 (UNIVERSITY OF SOUTHERN CALIFORNIA, published 2023).
